Results reported in patent publication US20140120095A1 (Boehringer Ingelheim, published 2014).
Read-outs that look alike come from different tables or passages of the source.

T1: recombinant mouse VEGF164 (R&D Systems) (mouse, UniProt Q00731-2 27-190)
T1 construct: also called rmVEGF164; mVEGF164
T1 sequence (looked up): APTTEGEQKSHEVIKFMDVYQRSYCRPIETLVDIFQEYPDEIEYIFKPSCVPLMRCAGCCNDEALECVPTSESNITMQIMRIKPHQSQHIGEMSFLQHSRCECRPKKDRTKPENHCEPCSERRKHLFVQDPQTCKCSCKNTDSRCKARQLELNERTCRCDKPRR

T2: VEGFD (UniProt O43915 93-201, limits assumed)
T2 sequence (looked up): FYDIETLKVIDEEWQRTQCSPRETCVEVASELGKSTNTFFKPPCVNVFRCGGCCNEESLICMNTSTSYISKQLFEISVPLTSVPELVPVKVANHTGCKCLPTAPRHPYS

T3: VEGFB (UniProt P49765-2 22-188, limits assumed)
T3 sequence (looked up): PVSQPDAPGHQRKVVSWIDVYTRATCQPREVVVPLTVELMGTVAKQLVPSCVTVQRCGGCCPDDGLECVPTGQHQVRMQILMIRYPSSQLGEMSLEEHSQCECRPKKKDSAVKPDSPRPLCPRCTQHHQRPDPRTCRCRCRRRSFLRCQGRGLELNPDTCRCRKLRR

T4: PIGF (UniProt P49763-2 21-149, limits assumed)
T4 construct: also called placenta growth factor
T4 sequence (looked up): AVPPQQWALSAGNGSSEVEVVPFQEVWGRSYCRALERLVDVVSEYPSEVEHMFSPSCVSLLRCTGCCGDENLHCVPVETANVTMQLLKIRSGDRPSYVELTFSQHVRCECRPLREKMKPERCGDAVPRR

T5: VEGFC (UniProt P49767 103-227, limits assumed)
T5 sequence (looked up): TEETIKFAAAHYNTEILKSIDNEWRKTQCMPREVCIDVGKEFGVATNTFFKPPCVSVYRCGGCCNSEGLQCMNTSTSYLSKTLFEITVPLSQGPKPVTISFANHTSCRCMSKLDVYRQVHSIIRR

B1: VEGFBII23A06 (VHH, not shown: small tags and cut ends)
VHH: EVQLVESGGGLVQPGDSLKLSCAFSGRTFSSYSMGWFRQAQGKEREFVVAISSGGFIYDAVSLEGRFTISRDNTKNTVYLQTPSLKPEDTAVYYCAASRAYGSSRLRLADTYDYWGQGTQVTVSS
B2: VEGFBII23A06 (VHH)
VHH: B1 VHH
B3: recombinant human VEGF121 (R&D Systems) (ligand, UniProt P15692-9 27-147, looked up)
chain: APMAEGGGQNHHEVVKFMDVYQRSYCHPIETLVDIFQEYPDEIEYIFKPSCVPLMRCGGCCNDEGLECVPTEESNITMQIMRIKPHQGQHIGEMSFLQHNKCECRPKKDRARQEKCDKPRR
notes: also called rhVEGF121
B4: VEGFBII23B04 (VHH, not shown: small tags and cut ends)
VHH: EVQLVESGGGLVQTGDSLRLSCEVSGRTFSSYSMGWFRQAQGKEREFVVAISKGGYKYDSVSLEGRFTISKDNAKNTVYLQINSLKPEDTAVYYCASSRAYGSSRLRLADTYEYWGQGTQVTVSS
notes: also called VEGFBII23B4; VEGFBII23B04 (wt)
B5: VEGFBII23B04 (VHH, not shown: small tags and cut ends)
VHH: B4 VHH
notes: also called VEGFBII23B4
B6: VEGFBII23B04 (VHH)
VHH: B4 VHH
notes: also called VEGFBII23B4

Columns and labels:
[1] = biological target: T6, recombinant human VEGF165 (human, UniProt P15692-4 27-191, biotinylated in the competition assays); experiment: SPR (Biacore), periplasmic extract over immobilised VEGF165, two phase decay fit
T6 construct: also called hVEGF165; rhVEGF165
Protocol: Dissociation rates of receptor-blocking VHHs are analyzed on Biacore (Biacore T100 instrument, GE Healthcare). HBS-EP+buffer is used as running buffer and experiments are performed at 25° C. […] After immobilization, surfaces are deactivated with 10 min injection of 1M ethanolamine pH8.5. […] Periplasmic extracts of VHHs are injected at a 10-fold dilution in running buffer for 2 min at 45 μl/min and allowed to dissociate for 10 or 15 min. Between different samples, the surfaces are regenerated with regeneration buffer. Data are double referenced by subtraction of the curves on the reference channel and of a blank running buffer injection. The dissociation phase of the processed curves is evaluated by fitting a two phase decay model in the Biacore T100 Evaluation software v2.0.1.

[2] = biological target: T6, recombinant human VEGF165; experiment: competition ELISA, biotinylated VEGF165 to coated VEGFR1-Fc
[3] = biological target: T1, recombinant mouse VEGF164 (R&D Systems); experiment: binding ELISA, coated rmVEGF164
Protocol: Cross-reactivity to mouse VEGF164 is determined using a binding ELISA. […] Wells are blocked with a casein solution (1% in PBS). […] A mouse VEGF164 reactive mAb is included as positive control.

[4] = biological target: T6, recombinant human VEGF165; experiment: SPR (Biacore), immobilised VEGF165, Two State Reaction model
Protocol: Samples are injected for 2 min and allowed to dissociate up to 20 min at a flow rate of 45 μl/min. In between sample injections, the chip surface is regenerated with 100 mM HCl. HBS-EP+(Hepes buffer pH7.4+EDTA) is used as running buffer. Binding curves are fitted using a Two State Reaction model by Biacore T100 Evaluation Software v2.0.1.
^{(a)}Heterogeneous binding curve resulting in no 1:1 fit, curves are fitted using a Two State Reaction model by Biacore T100 Evaluation Software v2.0.1

[5] = biological target: T6, recombinant human VEGF165; experiment: competition AlphaScreen, bio-VEGF165 and VEGFR2-Fc
Protocol: (§1) Finally, streptavidin donor beads (20 μg/ml) are added and after 1 hour of incubation in the dark, fluorescence is measured on the Envision microplate reader.

[6] = biological target: T6, recombinant human VEGF165; experiment: competition AlphaScreen, bio-VEGF165 and VEGFR1-Fc
Protocol: as §1

[7] = biological target: T6, recombinant human VEGF165; experiment: binding ELISA, coated rhVEGF165
[8] = biological target: B3; experiment: binding ELISA, coated recombinant human VEGF121
Protocol: (§2) Binding to recombinant human VEGF121 is assessed via a solid phase binding ELISA. […] Wells are blocked with a casein solution (1% in PBS).

[9] = biological target: T6, recombinant human VEGF165; experiment: competition ELISA, biotinylated VEGF165 to coated VEGFR2-Fc
VEGFD = biological target: T2, VEGFD; experiment: solid phase binding ELISA, 500 nM-32 pM VHH
Protocol: (§3) Binding to VEGFB, VEGFC, VEGFD and PIGF is assessed via a solid phase binding ELISA. […] Wells are blocked with a casein solution (1% in PBS). […] As positive controls serial dilutions of the appropriate receptors are taken along and detected with horseradish peroxidase (HRP)-conjugated goat anti-human IgG, Fc specific antibody (Jackson Immuno Research Laboratories Inc., West Grove, Pa., USA) and a subsequent enzymatic reaction in the presence of the substrate TMB (3,3′,5,5′-tetramentylbenzidine) (Pierce, Rockford, Ill., USA).

VEGFB = biological target: T3, VEGFB; experiment: solid phase binding ELISA, 500 nM-32 pM VHH
Protocol: as §3

PIGF = biological target: T4, PIGF; experiment: solid phase binding ELISA, 500 nM-32 pM VHH
Protocol: as §3

VEGFC = biological target: T5, VEGFC; experiment: solid phase binding ELISA, 500 nM-32 pM VHH
Protocol: as §3

[10] = biological target: T7, human VEGFR2-Fc chimera (R&D Systems) (human, UniProt P35968 20-764); experiment: binding ELISA on coated recombinant human VEGF121 (Example 12.7), positive control, OD 450 nm
T7 construct: also called hVEGFR2-Fc; VEGFR2-huFc
T7 sequence (P35968 20-764, change not shown): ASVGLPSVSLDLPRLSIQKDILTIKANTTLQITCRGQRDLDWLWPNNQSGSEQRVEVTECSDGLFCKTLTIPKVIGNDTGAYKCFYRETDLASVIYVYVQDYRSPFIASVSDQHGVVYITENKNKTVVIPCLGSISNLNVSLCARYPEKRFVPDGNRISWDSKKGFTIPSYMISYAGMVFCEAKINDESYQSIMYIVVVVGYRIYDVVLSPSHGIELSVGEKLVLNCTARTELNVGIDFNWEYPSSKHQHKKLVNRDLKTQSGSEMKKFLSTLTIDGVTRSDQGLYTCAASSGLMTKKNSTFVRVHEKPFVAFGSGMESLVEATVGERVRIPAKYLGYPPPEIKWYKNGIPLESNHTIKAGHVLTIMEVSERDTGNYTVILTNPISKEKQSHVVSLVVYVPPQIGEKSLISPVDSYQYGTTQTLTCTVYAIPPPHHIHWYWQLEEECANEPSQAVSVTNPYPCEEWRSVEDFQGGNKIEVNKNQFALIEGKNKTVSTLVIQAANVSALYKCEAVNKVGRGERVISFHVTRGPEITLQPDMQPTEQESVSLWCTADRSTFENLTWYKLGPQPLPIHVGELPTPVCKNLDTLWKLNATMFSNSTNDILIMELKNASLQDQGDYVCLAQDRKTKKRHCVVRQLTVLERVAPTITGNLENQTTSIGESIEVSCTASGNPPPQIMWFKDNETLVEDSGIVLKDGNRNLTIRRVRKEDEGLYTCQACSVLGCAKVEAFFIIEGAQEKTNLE
Protocol: as §2

[11] = biological target: T8, recombinant human VEGF165 (human, UniProt P15692-4 27-191, biotinylated in the competition assays); experiment: AlphaScreen, hVEGF165/hVEGFR2-Fc competition; design: % inhibition: concentration or dose not given beside the values
T8 construct: Bought protein; also called hVEGF165; rhVEGF165
Target sequence in this assay (P15692 other isoform, or with tags, fused parts or gaps): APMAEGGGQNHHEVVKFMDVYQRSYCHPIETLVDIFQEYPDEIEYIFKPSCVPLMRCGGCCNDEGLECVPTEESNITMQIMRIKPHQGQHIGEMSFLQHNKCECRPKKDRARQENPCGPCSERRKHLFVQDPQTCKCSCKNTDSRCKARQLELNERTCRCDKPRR

[12] = biological target: T9, VEGF (used to stimulate HUVEC cells) (UniProt P15692-4 27-191, limits assumed); experiment: cell-based or functional assay
[13] = biological target: T8, recombinant human VEGF165; experiment: AlphaScreen, hVEGF165/hVEGFR2-Fc competition, +5 uM HSA
Protocol: (§4) These 2 competition assays are also performed after preincubation of the VHHs with 5 μM human serum albumin.

[14] = biological target: T9, VEGF (used to stimulate HUVEC cells); experiment: cell-based or functional assay; remark: listed apart in the source
[15] = biological target: T8, recombinant human VEGF165; experiment: AlphaScreen, hVEGF165/hVEGFR2-Fc competition, -HSA
[16] = biological target: T8, recombinant human VEGF165; experiment: AlphaScreen, hVEGF165/hVEGFR1-Fc competition, -HSA
[17] = biological target: T8, recombinant human VEGF165; experiment: AlphaScreen, hVEGF165/hVEGFR2-Fc competition
[18] = biological target: T8, recombinant human VEGF165; experiment: AlphaScreen, hVEGF165/hVEGFR2-Fc competition, +5 uM HSA; remark: listed apart in the source
Protocol: as §4

[19] = biological target: T8, recombinant human VEGF165; experiment: AlphaScreen, hVEGF165/hVEGFR2-Fc competition, -HSA; remark: listed apart in the source
[20] = biological target: T8, recombinant human VEGF165; experiment: SPR Biacore, VEGF165
[21] = biological target: T9, VEGF (used to stimulate HUVEC cells); experiment: cell-based or functional assay; remark: listed apart in the source
[22] = biological target: T8, recombinant human VEGF165; experiment: AlphaScreen, hVEGF165/hVEGFR1-Fc competition, -HSA; remark: listed apart in the source
[23] = biological target: T9, VEGF (used to stimulate HUVEC cells); experiment: cell-based or functional assay; remark: listed apart in the source

Binder: B1
kd (fast) [1]: 0.017
kd (slow) [1]: 3.7e-05
IC50 [2]: 0.9 nM
binding result [3]: no binding (tested: dilution series 500 nM-32 pM)
Kd [4]: 0.7 nM
IC50 [5]: 0.25 nM
IC50 [6]: 0.4 nM
EC50 [7]: 0.531 nM
EC50 [8]: 0.928 nM
IC50 [9]: 3 nM

Binder: B2
binding result (VEGFD): no binding (tested: 500 nM)
binding result (VEGFB): no binding (tested: 500 nM)
binding result (PIGF): no binding (tested: 500 nM)
binding result (VEGFC): no binding (tested: 500 nM)

Binder: B3
binding result [10]: binds

Binder: B4
% inhibition [11]: 100%
IC50 [11]: 0.169 nM
IC50, VEGF HUVEC Erk phosphorylation assay [12]: 0.37 nM
% inh [13]: 100%
IC50 [13]: 0.3 nM
IC50, VEGF HUVEC proliferation assay [14]: 0.36 nM
% inh [15]: 100%
IC50 [15]: 0.19 nM
% inh [16]: 48%
IC50 [16]: 0.45 nM
% inhibition [17]: 100%
IC50 [17]: 0.152 nM
% inh [18]: 100%
IC50 [18]: 0.2 nM
% inh [19]: 100%
IC50 [19]: 0.22 nM
Kd [20]: 0.56 nM
% inhibition, VEGF HUVEC proliferation assay, -HSA [21]: 87%
IC50, VEGF HUVEC proliferation assay, +HSA [21]: 0.69 nM
IC50, VEGF HUVEC proliferation assay, -HSA [21]: 0.78 nM
% inh [22]: 44%
IC50 [22]: 0.43 nM
% inhibition, VEGF HUVEC proliferation assay [23]: 92%
IC50, VEGF HUVEC proliferation assay [23]: 0.68 nM

Binder: B5
kd (fast) [1]: 0.0088
kd (slow) [1]: 4e-05
IC50 [2]: 0.5 nM
binding result [3]: no binding (tested: dilution series 500 nM-32 pM)
Kd [4]: 0.7 nM
IC50 [5]: 0.16 nM
IC50 [6]: 0.9 nM
EC50 [7]: 0.297 nM
EC50 [8]: 0.51 nM
IC50 [9]: 2.1 nM

Binder: B6
binding result (VEGFD): no binding (tested: 500 nM)
binding result (VEGFB): no binding (tested: 500 nM)
binding result (PIGF): no binding (tested: 500 nM)
binding result (VEGFC): no binding (tested: 500 nM)
